The values below come from the DeepSol protein solubility set.

The nature of the data set: soluble on expression in E. coli; label from the status in PepcDB or PDB records.
Consider “MGSSHHHHHHSSGLVPRGSHMYLGRILAVGRNSNGSFVAYRVSSRSFPNRTTSIQEERVAVVPVEGHERDVFRNPYIAYNCIRIVGDTAVVSNGSHTDTIADKVALGMNLRDAIGLSLLAMDYEKDELNTPRIAAAINGSEAFIGIVTADGLMVSRVPEETPVYISTYEQTEPAATEFKAGSPEEAAEFILKGGEFAAFTHPVTAAAAFNDGEGWNLATREM”, for which the “soluble on expression in E. coli” value is listed as “soluble”.

As to “MGSSHHHHHHSSGLVPRGSNLKIKLQKRRDEVNTCLCIGLDPDEADIKSFMQSEKQNGYQSVKKNLSNSGSSSSSSNSSSGKGELFAPQMGGQMLLAETPPKEAQEKDEFFYFFNHFCFYIINETKEYALAYKMNFAFYLPYGSLGVDVLKNVFDYLHHLNVPTILDIKMNDIGNTVKHYRKFIFDYLRSDSCTANIYMGTQMLRDICLDEECKRYYSTFVLVKTTNADSHIFQNRLSLDGKEAYVVIAEEVQKMAKQLHLEENGEFVGFVVGANCYDEIKKIRELFPDCYILAPGVGAQKGDLRKMLCNGYSKNYEKVLINVGRAITKSGSPQQAAREYHQQIKEVLAELQE”, the “soluble on expression in E. coli” value is on record as “soluble”.

Regarding “MGSSHHHHHHSSGRENLYFQGHMIMIFTSSCCDNLSIDEIIERAEKGDCEAQYIVGFYYNRDSAIDSPDDEKAFYWLKLAAEQGHCEAQYSLGQKYTEDKSRHKDNEQAIFWLKKAALQGHTFASNALGWTLDRGEAPNYKEAVVWYQIAAESGMSYAQNNLGWMYRNGNGVAKDYALAFFWYKQAALQGHSDAQNNLADLYEDGKGVAQNKTLAAFWYLKSAQQGNRHAQFQIAWDYNAGEGVDQDYKQAMYWYLKAAAQGSVGAYVNIGYMYKHGQGVEKDYQAAFEWFTKAAECNDATAWYNLAIMYHYGEGRPVDLRQALDLYRKVQSSGTRDVSQEIRETEDLL”, the “soluble on expression in E. coli” value is listed as “soluble”.

As to “MGSSHHHHHHSSGRENLYFQGHMTRTNLITGFLGSGKTTSILHLLAHKDPNEKWAVLVNEFGEVGIDGALLADSGALLKEIPGGCMCCVNGLPMQVGLNTLLRQGKPDRLLIEPTGLGHPKQILDLLTAPVYEPWIDLRATLCILDPRLLLDEKSASNENFRDQLAAADIIVANKSDRTTPESEQALQRWWQQNGGDRQLIHSEHGKVDGHLLDLPRRNLAELPASAAHSHQHVVKKGLAALSLPEHQRWRRSLNSGQGYQACGWIFDADTVFDTIGILEWARLAPVERVKGVLRIPEGLVRINRQGDDLHIETQNVAPPDSRIELISSSEADWNALQSALLKLRLATTA”, the “soluble on expression in E. coli” value is on record as “soluble”.

“MGSSHHHHHHSSGRENLYFQGMNDSIHGGLRVCQSTPLVQLQDRGRFGCRHLGVTQGGALDWLSMGWANWLLGNPLDAAVIEIALGGFVADCRADGWLALAGGDLGATLDGQPLPAWGAFAVRGGQRLAFAHPRQGARAYLAAPGGFAGERQLGSLATVAREGLGGPRADGKALAAGDSLGWLADGARPRALPLPSERIMDCTGEARLELILGAQIGDFPAMSLFDAFNGDWQVDTRADRMGVRLLGPRLECRQQSMISEGIALGAVQVPPDGQPIVLLNDRQTIGGYPRLGALAPLALARLAQCLPGQRVRLLPTVQEAAHREHRRLLAAWDA”: the “soluble on expression in E. coli” value is “soluble”.

Take “MGTFATTYEKIQDFNWLTRFLHAGRYRKLLEVLETVQKDVGNRKVRILDIGCGPGTAVGHILERFDVEYVGIDYDPIFIDAARNRYGKNENCRFIVGDATDERLYETIQADIVIALETLEHIHLNRTVRVIEHVCTIIRPRIFLVTVPVEVGPAVWIKNWGSALMGYNRQSGNLKETFWAGLYRMDRVPAHHTSHQGFDWRCLAQLIRVNAPLREIRSLPFSFVPRLLSPNVALIAEPVKSTIDLANDDPEAWKINHGQTAFQRPHIVDETDAARHAKSLATWSMRLKGLLGMALATMPFAWHRWSYISISPGEAQSSHFLLTIDKHLLPPHQSIEGDTILLAAQAIVQRVSDASYLLT”: the “soluble on expression in E. coli” value was “not soluble”.

For “MGTVMDVLKGDNRFSMLVAAIQSAGLTETLNREGVYTVFAPTNEAFRALPPRERSRLLGDAKELANILKYHIGDEILVSGGIGALVRLKSLQGDKLEVSLKNNVVSVNKEPVAEPDIMATNGVVHVITNVLQP”, the “soluble on expression in E. coli” value is recorded as “soluble”.

For “MGVETLNKVFKIAKKFYTDIRYYSFQLACIHLGETFSRYTKFNLADKYYLKKDKIVLNYLRTRYTNSPKQDVYGGVPKIYQPIWVFWYQGEEQMPKLVSACLKSVRNNANGHEVILISKENMNNYIEIPDVIRDRVESKKISMAQYSDIIRMCLLAEYGGLWIDATVLVTQLIPQYIFELPLFTIKNSPNQEDPLYFISVSHLRWTTYVMGGEPNNALFTFVRDLLIEYNSVENALIDYLLIDYAIELAIEKNSSISDDMIKIPINNQLKEEFVHRLFSVYPDCKTKELLQSGTIFFKLSYKKVAPKVIEKNNYQLLVDGDLCQAYNMGNLEHHHHHH”, the “soluble on expression in E. coli” value is given as “not soluble”.

Regarding “MGVPIGDLVPRKEIDLENLYGKKIAIDALNAIYQFLSTIRQEDGTPLMDSKGRITSHLSGLFYRTINLMEAGIKPAYVFDGKPPEFKRKELEKRREAREEAELKWKEALAKGNLEEARKYAQRATKVNEMLIEDAKKLLQLMGIPIIQAPSEGEAQAAYMASKGDVYASASQDYDSLLFGAPRLIRNLTITGKRKMPGKDVYVEIKPELVVLDEVLKELKITREKLIELAILVGTDYNPGGVKGIGPKKALEIVRYSRDPLAKFQRQSDVDLYAIKEFFLNPPVTNEYSLSWKEPDEEGILKFLCDEHNFSEERVKNGIERLKKAIKAGRQSTLESWFVKKKP”, the “soluble on expression in E. coli” value is recorded as “soluble”.

Turning to “MGVVLARGAFRERSMLTLPDFPLPDARGRFGPYGGRYVPETLIPALEELEAAYREAKKDPAFLEELDHYLRQFAGRPTPLYHAKRLSEYWGGAQVFLKREDLLHTGAHKINNTLGQALLARRMGKRRVIAETGAGQHGVSVATVAALFGLECVVYMGEEDVRRQALNVFRMKLLGAEVRPVAAGSRTLKDATNEAIRDWITNVRTTFYILGSVVGPHPYPMMVRDFQSVIGEEVKRQSLELFGRLPDALIAAVGGGSNAIGLFAPFAYLPEGRPKLIGVEAAGEGLSTGRHAASIGAGKRGVLHGSYMYLLYDHDGQITPAHSVSAGLDYPGVGPEHSYYADAGVAEYASVTDEEALEGFKLLARLEGIIPALESAHAIAYAAKVVPEMDKDQVVVINLSGRGDKDVTEVMRLLGGEL”, the “soluble on expression in E. coli” value is “soluble”.

Consider “MGWFGFGGNPTDTPSSSAEVSAAPIDLSAGMNFSVPGFDAPAPEPSVPDHSPFPAAPVLALDQLKSAGVGVSRQMTPYVQMDPSMFASQQPQYIMPEGGVAGKGKFEFALGHIGWAVGGAFGVGCARGALGELMNPETRKMVGKPWMTRMVNATMKHGSGFAQPSGAIVFMYSALEIGLRSVRAEDELNGFGAGALTGAIYRSPHGLKASGVGALVGLGIAAAWTLSSTDSRQRLSEMFSNH”, for which the “soluble on expression in E. coli” value is given as “soluble”.

For the sequence “MGYAVLHLEKAKGTDSRMSAHIERTVHPKNADRTRTHLNRELVQFPEGVRNRTQAIAQRIETAGIRRKVSANQVKAIRILLTGSNKDMKQMEAEGRIEDWCNDSLKWIRETYGEQNLVSAVLHMDEKTPHIHATVIPIMTGERRKAGQEEQNGKKKYRKKNPQDVRLCADDVMARHRLKHYQDTYAQAMNKYGLQRGVDGSLAKHISTMQYYKQLVEQQDSLQENIENLLGLEEEAMKKLKQVKGEINVQKMKGAAVNATTAIADGVSSLFGGSKVKRLEAENENLKRNIVNLQKQVQAEQREQTKMENRHSSEINRVDRSYRQKIAEYDNRLELIDTYFPIVKELIPIAEQCREVGFTEELTRRIVSLQPVEFKGRLYSKEYKEKFRTEHSTATVERTPQEKGKFRLCIDGIPILDWFRKKFQEIKEKLGLNTPVENKQRKGLKILEHHHHHH”, the “soluble on expression in E. coli” value is recorded as “not soluble”.

As to “MGYTKAEILKALKGENVKFLRLQITDILGVVKNVEVPESQFEKALDGEIMFDGSSIEGFTRIEESDMLLRPDYNTFVILPDLVEDPKRGRVARLICDVYYPDGRPFEGDPRYVLKRQIERLKKLGFDNLYAGPEPEFFLFLRTPEGLPTTETHDRAGYFDLAPIDKGEEARRDMVNALVAMGFEIEAAHHEVAPGQHEIDFKYADALTTADNIATFKWVVKRIALNHGLHATFLPKPIRGINGSGMHTHLSLFKDGENAFYDPNAEYQLSQTALHFIAGLLEHAAGMVAVTNPLVNSYKRLTPGYEAPTNIAWSASNRSAMIRIPARRGVGTRAELRMPDPSCNPYLALAVMAAAGADGIERKLLPPPPIQRNIYQMTVRERRKHKIRELPGTLREALEALRKDPVIREALGEHVYTHFLQAKQMEWDDYRVTVHQWELDRYLATY”, the “soluble on expression in E. coli” value was “soluble”.

Take “MGYVEIIEQPKQRGMRFRYKCEGRSAGSIPGERSTDTTKTHPTIKINGYTGPGTVRISLVTKDPPHRPHPHELVGKDCRDGFYEAELCPDRCIHSFQNLGIQCVKKRDLEQAISQRIQTNNNPFQVPIEEQRGDYDLNAVRLCFQVTVRDPSGRPLRLPPVLSHPIFDNRAPNTAELKICRVNRNSGSCLGGDEIFLLCDKVQKEDIEVYFTGPGWEARGSFSQADVHRQVAIVFRTPPYADPSLQAPVRVSMQLRRPSDRELSEPMEFQYLPDGSLSSGSSLSSPSAGAAPRVLFGEWLLGEISSGCYEGLQWLDEARTCFRVPWKHFARKDLSEADARIFKAWAVARGRWPPSSRGGGPPPEAETAERAGWKTNFRCALRSTRRFVMLRDNSGDPADQHKVYALSGSLSSDSSLSSPSALSPKPRILPWLVSQLDLGQLEGVAWVNKSRTRFRIPWKHGLRQDAQQEDFGIFQAWAEATGAYVPGRDKPDLPTWKRNFRSALNRKEGLRLAEDRSKDPHDPHKIYEFVNGLEHHHHHH”: the “soluble on expression in E. coli” value is listed as “soluble”.

With “MHCDLPCGVYDPAQARIEAESVKAVQEKMAGNDDPHFQTRATVIKEQRAELAKHHVSVLWSDYFKPPHFEKYPELHQLVNDTLKAMSAAKGSKDPATGQKALDYIAQIDKIFWETKKA”, the “soluble on expression in E. coli” value was “soluble”.

In the case of “MHDASHNSLFKTKWMNDYLVDWLCARPIWNDVHKYRTHHTRHHAKTSTPEDPDLTLVAGFPTTKTSLTRKFLRDLVGITGFKFTVGRILMDAEVLKWTVANDLTWLPRENRQWYDYPKVFLKNSSKAIIANASIFGILWAFGRPELYLLWPLAYLTPFPLFIRIRSMAEHAGTQISNNALTNTRTTKAGWLARAFVAPIRVNYHMEHHLMAAVPFFKLPKMHQMLRERGHVPEPPTYVQVIHMLSSHQTNQHPLNSVEQGELEHHHHHH”, the “soluble on expression in E. coli” value is given as “soluble”.

For “MHEMRELAQGSLKEMRTLIWQLRPAGLEKGLLPALKQYGESLGLKIREQVTGVRDLPRVVEEALWRIGQEALNNVSKHANVREATIYFKVTEKNVSLEIVDQGNGFVEKNIKEKKSLGMTTMRERVELVGGTIKIVSDKKRTSVKVNVPL”, the “soluble on expression in E. coli” value is “not soluble”.

On to “MHFTPALKPGKLLKRYKRFLADVQLEDGSEITVHCPNTGSMRNCLFPGETLWFSTSSNTKRKYAHTWELMTTPTGALIGIHSGNANALVEEALNKGIITELTGYDSLRREVKYGDENSRIDILLECAQKTACYIEVKSCTLQENGQGYFPDAVSLRGQKHLRELMHMASLGHRAVLLFVVQHTDIMSVAPAAHIDPEYANLLKKSVLSGVEVLAYRCEISPSEIHLAQSCPVRV”, for which the “soluble on expression in E. coli” value is given as “soluble”.

Take “MHGKDPFSDFREFINTMESRVQELGKAYGVEHLAGPQGFAVRYLFENQDKEIFIKDIEKKLSISKSVASNLVKRMEKNGFVELVTSDKDKRYKYVHLTDLGKKKAQDVGHFREAIHGQLLDGISKEDAETAFRVFHQIRKNLEKNKE”: the “soluble on expression in E. coli” value was “not soluble”.

With “MHGSKLPLTVWFWAAYLMATHSNGISARQMGRHLGLGSYKSAWLLCAKLRGAMVNLARALLSGLVEIDETQISYRTKDNPVAGGGGRSPEGKMQVVVAVEVIDNAPGRLRLGVIDDASSASLHPFIKASVASGATLKTDGWSAYPGAPGYKHEPHVVGKMAAHIVLPWVHRVISNLKTWALGVYHGLRRQHLQSYLNEFVFRFNCRRTPHAAFRTLLGIGLAIQPVTYNMLIAPEAQGLEHHHHHH”, the “soluble on expression in E. coli” value is recorded as “not soluble”.
